# Measurements reported in PMC6145145.
# T1: POT1-K90E (human, UniProt Q9NUX5 1-634, K90E)
# T1 sequence: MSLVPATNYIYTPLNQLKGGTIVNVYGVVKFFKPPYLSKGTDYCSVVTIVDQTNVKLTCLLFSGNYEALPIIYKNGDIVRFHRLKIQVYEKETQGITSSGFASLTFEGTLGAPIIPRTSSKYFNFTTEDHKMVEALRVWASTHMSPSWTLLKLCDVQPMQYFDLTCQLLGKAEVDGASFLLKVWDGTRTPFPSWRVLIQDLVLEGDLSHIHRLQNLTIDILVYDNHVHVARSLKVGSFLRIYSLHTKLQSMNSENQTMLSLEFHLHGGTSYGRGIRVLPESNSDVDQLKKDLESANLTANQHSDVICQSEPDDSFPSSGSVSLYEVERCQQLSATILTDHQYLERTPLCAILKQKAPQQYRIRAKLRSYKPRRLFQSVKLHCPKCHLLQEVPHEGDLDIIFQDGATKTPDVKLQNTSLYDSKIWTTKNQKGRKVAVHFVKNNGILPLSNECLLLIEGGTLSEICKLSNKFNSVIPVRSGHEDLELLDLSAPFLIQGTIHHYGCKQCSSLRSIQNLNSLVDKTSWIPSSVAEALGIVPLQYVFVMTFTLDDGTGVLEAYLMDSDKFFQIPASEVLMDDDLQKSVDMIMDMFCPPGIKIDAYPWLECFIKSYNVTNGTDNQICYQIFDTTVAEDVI
# T2: POT1 WT (human, UniProt Q9NUX5 1-634)
# T2 sequence: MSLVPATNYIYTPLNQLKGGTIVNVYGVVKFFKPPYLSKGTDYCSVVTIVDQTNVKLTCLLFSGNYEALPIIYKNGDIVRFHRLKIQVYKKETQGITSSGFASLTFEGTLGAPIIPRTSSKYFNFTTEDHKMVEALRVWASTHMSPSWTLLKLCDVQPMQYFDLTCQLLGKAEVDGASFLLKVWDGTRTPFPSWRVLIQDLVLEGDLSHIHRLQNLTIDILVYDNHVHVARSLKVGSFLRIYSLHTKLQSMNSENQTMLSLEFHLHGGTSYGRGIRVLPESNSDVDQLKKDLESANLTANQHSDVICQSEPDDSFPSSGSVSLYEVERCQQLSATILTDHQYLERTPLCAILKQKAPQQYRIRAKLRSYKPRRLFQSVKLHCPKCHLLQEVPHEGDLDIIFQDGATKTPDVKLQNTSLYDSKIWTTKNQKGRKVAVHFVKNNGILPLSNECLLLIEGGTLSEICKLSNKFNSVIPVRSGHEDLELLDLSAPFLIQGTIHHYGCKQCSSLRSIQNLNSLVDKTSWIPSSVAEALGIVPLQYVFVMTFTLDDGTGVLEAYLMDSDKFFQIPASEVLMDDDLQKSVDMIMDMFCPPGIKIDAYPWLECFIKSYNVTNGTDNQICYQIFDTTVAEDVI
# Columns and labels:
# [1] = molecular target: T1, POT1-K90E; assay: EMSA
# [2] = molecular target: T2, POT1 WT; assay: EMSA
binder,measurement,setting,value
TTAGGGTTAGGGTTAGGG (ssDNA) [telomeric primer (TTAGGG)3],binding result,[1],binds
same,binding result,[2],binds
